{
  "source": "patent US20210238276A1",
  "about": "(INTEGRAL MOLECULAR, published 2021)",
  "binders": {"B1": {"name": "AB102 (Fc fusion)", "scFv": "ALTQPSSVSANLGGTVKITCSGGGSYGYGWYQQKSPGSAPVTVIYSNDQRPSDIPSRFSGSKSGSTATLTITGVRAEDEAIYYCGSTDSDYVGIFGAGTTLTVLGQSSRSSGGGGSSGGGGSAVTLDESGGGLQTPGGTLSLVCKASGFDFSSYATIWVRQAPGKGLEWVAGISGTGTGSSTGYAPAVKGRATISRDNGQSTVRLQLNNLRAEDTGSYFCAKSTGYGDSWIYPDSIDAWGHGTEVIVSS", "notes": "also called MAb AB102; not shown: Fc fragment of human IgG1, cloned in frame with the scFv"}},
  "test_in_all_cases": "flow cytometry, alanine-scan library in HEK-293T, with cytochalasin B",
  "key": {"[1]": {"biological_target": "T1, hsGLUT4 L61A (human, UniProt P14672 1-509)", "T1 sequence": "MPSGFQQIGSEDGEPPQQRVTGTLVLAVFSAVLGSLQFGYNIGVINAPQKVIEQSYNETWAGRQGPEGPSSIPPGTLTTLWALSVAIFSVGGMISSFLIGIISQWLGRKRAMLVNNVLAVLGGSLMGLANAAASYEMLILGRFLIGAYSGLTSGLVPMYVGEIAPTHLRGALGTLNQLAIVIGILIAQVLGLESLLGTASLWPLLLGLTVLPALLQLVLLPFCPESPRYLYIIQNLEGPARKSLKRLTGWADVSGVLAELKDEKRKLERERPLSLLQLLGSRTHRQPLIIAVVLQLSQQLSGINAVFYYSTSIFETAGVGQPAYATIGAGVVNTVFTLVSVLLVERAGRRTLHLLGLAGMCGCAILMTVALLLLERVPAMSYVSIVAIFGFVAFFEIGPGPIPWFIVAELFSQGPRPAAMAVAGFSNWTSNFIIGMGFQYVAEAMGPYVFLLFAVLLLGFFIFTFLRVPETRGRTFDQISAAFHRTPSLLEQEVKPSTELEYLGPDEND", "procedure,_shortened": "(§1)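 HEK-293T cells expressing individual GLUT4 alanine mutants were stained 48 h post-transfection with anti-GLUT4 scFv MAbs (2 μg/ml), then biotinylated secondary and streptavidin-PerCP, and read by high-throughput flow cytometry. Where used, cytochalasin B (10 uM final) was given for 30 min before and during primary antibody staining.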"}, "[2]": {"biological_target": "T2, hsGLUT4 E162A (human, UniProt P14672 1-509)", "T2 sequence": "T1 sequence with A61L, E162A", "procedure,_shortened": "as §1"}, "[3]": {"biological_target": "T3, hsGLUT4 P66A (human, UniProt P14672 1-509)", "T3 sequence": "T1 sequence with A61L, P66A", "procedure,_shortened": "as §1"}, "[4]": {"biological_target": "T4, hsGLUT4 G348A (human, UniProt P14672 1-509)", "T4 sequence": "T1 sequence with A61L, G348A", "procedure,_shortened": "as §1"}},
  "note": "Residue numbers refer to the chain shown, from its start.",
  "data": [
    {"binder": "B1", "values": [
      {"measurement": "% of binding to wild type GLUT4", "setting": "[1]", "result": 69, "unit": "%"},
      {"measurement": "% of binding to wild type GLUT4", "setting": "[2]", "result": 7, "unit": "%"},
      {"measurement": "% of binding to wild type GLUT4", "setting": "[3]", "result": 97, "unit": "%"},
      {"measurement": "% of binding to wild type GLUT4", "setting": "[4]", "result": 79, "unit": "%"}
    ]}
  ]
}
